Earlier results on 1 substance are cited in publication PMC6018615.

This data set addresses TNPO1 (Homo sapiens) (UniProt Q92973).
Chain of UniProt Q92973 (Q92973 whole entry): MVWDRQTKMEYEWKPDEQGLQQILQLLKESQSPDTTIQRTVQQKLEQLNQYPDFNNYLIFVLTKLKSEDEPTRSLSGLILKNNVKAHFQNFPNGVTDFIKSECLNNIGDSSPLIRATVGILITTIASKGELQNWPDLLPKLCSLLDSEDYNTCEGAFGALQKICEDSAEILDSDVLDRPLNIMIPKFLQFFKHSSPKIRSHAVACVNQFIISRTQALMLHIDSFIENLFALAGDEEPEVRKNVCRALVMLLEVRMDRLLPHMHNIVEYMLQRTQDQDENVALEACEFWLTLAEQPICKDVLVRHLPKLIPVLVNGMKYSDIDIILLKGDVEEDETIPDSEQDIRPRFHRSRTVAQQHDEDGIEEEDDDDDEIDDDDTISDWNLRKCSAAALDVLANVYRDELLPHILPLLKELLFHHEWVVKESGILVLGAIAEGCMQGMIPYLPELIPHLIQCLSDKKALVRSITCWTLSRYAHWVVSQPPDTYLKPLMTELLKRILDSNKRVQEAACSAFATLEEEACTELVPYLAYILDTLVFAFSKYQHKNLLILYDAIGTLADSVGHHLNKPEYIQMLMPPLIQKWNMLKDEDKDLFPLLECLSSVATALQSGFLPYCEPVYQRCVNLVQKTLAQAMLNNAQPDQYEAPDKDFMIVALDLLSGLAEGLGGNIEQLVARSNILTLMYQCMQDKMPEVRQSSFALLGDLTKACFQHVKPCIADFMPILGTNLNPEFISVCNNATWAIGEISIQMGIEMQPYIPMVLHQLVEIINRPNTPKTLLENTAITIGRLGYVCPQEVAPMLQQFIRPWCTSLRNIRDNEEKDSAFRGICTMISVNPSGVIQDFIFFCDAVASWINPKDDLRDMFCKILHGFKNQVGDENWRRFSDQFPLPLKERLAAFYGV

By Kd is commonly meant the constant that tells how readily two partners part at equilibrium. On to FUS (from UniProt P35637), for which the Kd was 9.5 nM.
